Results as given in patent publication US20130158103A1.

Biological target: TGFβ1 (PeproTech Inc, Rocky Hill, N.J.)
Assay: cell-based or functional assay

SMA RNA level (real-time PCR), decorin-transfected vs un-transfected HSF with TGFβ1 1 ng/ml: > 6 fold
SMA protein level (western blot), decorin-transfected vs un-transfected HSF with TGFβ1: 83%
SMA-stained cells (immunocytochemistry), decorin-transfected vs un-transfected HSF with TGFβ1: 79%
collagen type I RNA level (real-time PCR), decorin-transfected vs naked-vector transfected HSF with TGFβ1 1 ng/ml: 1 fold
collagen type III RNA level (real-time PCR), decorin-transfected vs naked-vector transfected HSF with TGFβ1 1 ng/ml: 0.9 fold
collagen type IV RNA level (real-time PCR), decorin-transfected vs naked-vector transfected HSF with TGFβ1 1 ng/ml: 3.2 fold
fibronectin RNA level (real-time PCR), decorin-transfected vs naked-vector transfected HSF with TGFβ1 1 ng/ml: 3.1 fold
Substance: human decorin (Accession #NM-001920), expressed in human corneal fibroblasts (HSF) from pcDNA3.1-decorin (from UniProt P07585 31-359)
